According to publication doi:10.1101/2023.05.05.539533 (bioRxiv, 2023):

T1: PSR2 (untagged, purified from E. coli) (P. sojae, UniProt E0W4V5 18-670)
T1 sequence: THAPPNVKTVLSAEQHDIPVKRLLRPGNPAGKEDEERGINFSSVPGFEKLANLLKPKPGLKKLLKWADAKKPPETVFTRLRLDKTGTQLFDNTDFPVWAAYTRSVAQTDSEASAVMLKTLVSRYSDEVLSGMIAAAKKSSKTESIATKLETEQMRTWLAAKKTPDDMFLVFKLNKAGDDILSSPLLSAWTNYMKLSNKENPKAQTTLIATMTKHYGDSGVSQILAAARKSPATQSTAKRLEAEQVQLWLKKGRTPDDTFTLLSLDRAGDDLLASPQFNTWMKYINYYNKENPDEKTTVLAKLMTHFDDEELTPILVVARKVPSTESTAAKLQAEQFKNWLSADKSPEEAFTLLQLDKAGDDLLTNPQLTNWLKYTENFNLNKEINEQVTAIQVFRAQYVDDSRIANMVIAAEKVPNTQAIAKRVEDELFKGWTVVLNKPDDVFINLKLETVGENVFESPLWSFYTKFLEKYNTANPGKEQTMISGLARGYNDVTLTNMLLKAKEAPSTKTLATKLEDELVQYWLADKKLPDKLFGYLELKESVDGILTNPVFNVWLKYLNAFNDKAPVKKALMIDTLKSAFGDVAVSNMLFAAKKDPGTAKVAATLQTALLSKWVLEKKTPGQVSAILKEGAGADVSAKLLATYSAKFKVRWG


Experiments:
[1] = target: PSR2 (untagged, purified from E. coli) (P. sojae) (UniProt E0W4V5); experiment: ITC
[2] = target: ATB’g (Arabidopsis PP2A B subunit) (Arabidopsis thaliana) (UniProt Q8RW96); experiment: ITC
Sequence of ATB’g (Arabidopsis PP2A B subunit) (Arabidopsis thaliana) (Q8RW96 whole entry): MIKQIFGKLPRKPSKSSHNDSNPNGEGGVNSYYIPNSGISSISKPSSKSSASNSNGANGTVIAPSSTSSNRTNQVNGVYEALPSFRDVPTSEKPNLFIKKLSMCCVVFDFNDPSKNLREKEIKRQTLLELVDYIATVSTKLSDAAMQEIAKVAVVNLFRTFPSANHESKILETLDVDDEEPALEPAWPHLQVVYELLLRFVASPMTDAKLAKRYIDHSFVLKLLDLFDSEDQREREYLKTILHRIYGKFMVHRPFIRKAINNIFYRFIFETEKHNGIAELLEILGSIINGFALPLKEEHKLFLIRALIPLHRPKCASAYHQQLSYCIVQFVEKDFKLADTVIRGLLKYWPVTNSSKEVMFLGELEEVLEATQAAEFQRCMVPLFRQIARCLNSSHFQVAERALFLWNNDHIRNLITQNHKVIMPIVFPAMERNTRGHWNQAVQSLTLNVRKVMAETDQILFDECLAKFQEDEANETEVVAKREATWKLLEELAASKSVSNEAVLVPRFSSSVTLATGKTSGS

[3] = target: T1, PSR2 (untagged, purified from E. coli); experiment: pull-down

| Molecule | Kd [1] [nM] | Kd [2] [µM] | binding result [3] |
| --- | --- | --- | --- |
| 6×His-PDF1 (full-length PDF1, purified from E. coli) (from UniProt Q9S728 24-306) (natural protein) | 350 | 3.33 |  |
| RCN1 (purified from E. coli) (natural protein) MAMVDEPLYPIAVLIDELKNDDIQLRLNSIRRLSTIARALGEERTRKELIPFLSENSDDDDEVLLAMAEELGVFIPFVGGIEFAHVLLPPLESLCTVEETCVREKAVESLCKIGSQMKENDLVESFVPLVKRLAGGEWFAARVSACGIFHVAYQGCTDVLKTELRATYSQLCKDDMPMVRRAAASNLGKFATTVESTFLIAEIMTMFDDLTKDDQDSVRLLAVEGCAALGKLLEPQDCVARILPVIVNFSQDKSWRVRYMVANQLYELCEAVGPDCTRTDLVPAYVRLLRDNEAEVRIAAAGKVTKFCRLLNPELAIQHILPCVKELSSDSSQHVRSALASVIMGMAPILGKDSTIEHLLPIFLSLLKDEFPDVRLNIISKLDQVNQVIGIDLLSQSLLPAIVELAEDRHWRVRLAIIEYVPLLASQLGIGFFDDKLGALCMQWLQDKVYSIREAAANNLKRLAEEFGPEWAMQHLVPQVLDMVNNPHYLHRMMVLRAISLMAPVMGSEITCSKFLPVVVEASKDRVPNIKFNVAKLLQSLIPIVDQSVVDKTIRQCLVDLSEDPDVDVRYFANQALNSIDGSTAAQS |  |  | binds |
